Data on 1 substance can be found in publication PMC5967319.

For this assay, the target named is eukaryotic initiation factor 4E (eIF4E) (human (endogenous in HEK293T)) (UniProt P06730). Briefly: pull-down; eIF4E captured from HEK293T lysate (1 mg protein) on m7GTP-agarose (cap analog), 4 °C, 90 min, 50 mM HEPES pH 7.4, 50 mM NaCl; eluted with 0.5 mM m7GTP; blots for eIF4E and 4EBP1; cells in complete medium or medium without His, Arg, Leu or Met for 12 h, or transfected with empty vector, wild-type or T37A/T46A 4EBP1 for 24 h.
Chain of UniProt P06730 (P06730 whole entry): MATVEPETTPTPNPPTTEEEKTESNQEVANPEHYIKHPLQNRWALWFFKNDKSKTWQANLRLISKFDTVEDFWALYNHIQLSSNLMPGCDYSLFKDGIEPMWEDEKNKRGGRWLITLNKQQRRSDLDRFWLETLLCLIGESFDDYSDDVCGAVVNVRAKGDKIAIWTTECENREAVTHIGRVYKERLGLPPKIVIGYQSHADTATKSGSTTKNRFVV

Substance “mutant constitutively active 4EBP1(T37A/T46A) (from UniProt Q60876 1-117) (natural protein)” showed a fold of 4EBP1 bound to eIF4E against cells with empty vector of 4 fold.
